In publication PMC3591605:

Target: histones (calf thymus, type IIIS) (calf (thymus)) (UniProt P02253)
Test: ITC

Chain of UniProt P02253 (P02253 whole entry): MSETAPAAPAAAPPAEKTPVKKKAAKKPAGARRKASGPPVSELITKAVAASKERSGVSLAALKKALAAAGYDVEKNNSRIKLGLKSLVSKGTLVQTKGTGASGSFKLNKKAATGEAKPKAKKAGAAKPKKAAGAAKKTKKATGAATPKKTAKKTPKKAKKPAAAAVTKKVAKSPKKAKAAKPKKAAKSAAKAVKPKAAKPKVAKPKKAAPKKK

“large fibrin degradation products (molecular masses >150 kDa) (from UniProt P02671 36-866; P02675 45-491; P02679 27-453) (complex)” gave a Kd of 0.191 µM.
